In publication PMC12313893, “Queuosine is incorporated into precursor tRNA before splicing”:

Experiments:
[1] = target: T1, QTRT1 (catalytic subunit of TGT);QTRT2 (accessory subunit of TGT) (Mus musculus;Mus musculus, UniProt Q9JMA2;B8ZXI1 1-403;1-415, |); assay: MST; no 9dG; MST: 20 mM HEPES pH 7.5, 75 mM NaCl, 1 mM MgCl2, 0.025% Tween 20, 2 mM DTT, 50 nM Cy5-tRNA, 25 C, +/-100 uM 9dG; EMSA: same buffer without Tween, 100 uM 9dG, 200 nM tRNA, 4 C, 6% native gel; details: protein: recombinant;recombinant, copies: 1;1, label: Cy5-cytosine incorporated during transcription (MST, EMSA)
[2] = target: T1, QTRT1 (catalytic subunit of TGT);QTRT2 …; assay: MST; 100 uM 9-deazaguanine; apparent Kd (covalent trapping; review file cites 1.2); MST: 20 mM HEPES pH 7.5, 75 mM NaCl, 1 mM MgCl2, 0.025% Tween 20, 2 mM DTT, 50 nM Cy5-tRNA, 25 C, +/-100 uM 9dG; EMSA: same buffer without Tween, 100 uM 9dG, 200 nM tRNA, 4 C, 6% native gel; details: protein: recombinant;recombinant; copies: 1;1; label: Cy5-cytosine incorporated during transcription (MST, EMSA); tRNA cloverleaf
[3] = target: T1, QTRT1 (catalytic subunit of TGT);QTRT2 …; assay: MST; 9-deazaguanine; apparent Kd from peer review file; MST: 20 mM HEPES pH 7.5, 75 mM NaCl, 1 mM MgCl2, 0.025% Tween 20, 2 mM DTT, 50 nM Cy5-tRNA, 25 C, +/-100 uM 9dG; EMSA: same buffer without Tween, 100 uM 9dG, 200 nM tRNA, 4 C, 6% native gel; details: protein: recombinant;recombinant; copies: 1;1; label: Cy5-cytosine incorporated during transcription (MST); tRNA cloverleaf with intron in anticodon loop
[4] = target: T1, QTRT1 (catalytic subunit of TGT);QTRT2 …; assay: MST; no 9dG; value from peer review file (main text calls 2-1 slightly weaker); MST: 20 mM HEPES pH 7.5, 75 mM NaCl, 1 mM MgCl2, 0.025% Tween 20, 2 mM DTT, 50 nM Cy5-tRNA, 25 C, +/-100 uM 9dG; EMSA: same buffer without Tween, 100 uM 9dG, 200 nM tRNA, 4 C, 6% native gel; details: protein: recombinant;recombinant; copies: 1;1; label: Cy5-cytosine incorporated during transcription (MST); tRNA cloverleaf with intron in anticodon loop
[5] = target: T1, QTRT1 (catalytic subunit of TGT);QTRT2 …; assay: MST; 100 uM 9-deazaguanine; apparent Kd (covalent trapping); MST: 20 mM HEPES pH 7.5, 75 mM NaCl, 1 mM MgCl2, 0.025% Tween 20, 2 mM DTT, 50 nM Cy5-tRNA, 25 C, +/-100 uM 9dG; EMSA: same buffer without Tween, 100 uM 9dG, 200 nM tRNA, 4 C, 6% native gel; details: protein: recombinant;recombinant; copies: 1;1; label: Cy5-cytosine incorporated during transcription (MST, EMSA); tRNA cloverleaf with intron in anticodon loop

T1 sequence (Q9JMA2 whole entry, chain 1 of 2): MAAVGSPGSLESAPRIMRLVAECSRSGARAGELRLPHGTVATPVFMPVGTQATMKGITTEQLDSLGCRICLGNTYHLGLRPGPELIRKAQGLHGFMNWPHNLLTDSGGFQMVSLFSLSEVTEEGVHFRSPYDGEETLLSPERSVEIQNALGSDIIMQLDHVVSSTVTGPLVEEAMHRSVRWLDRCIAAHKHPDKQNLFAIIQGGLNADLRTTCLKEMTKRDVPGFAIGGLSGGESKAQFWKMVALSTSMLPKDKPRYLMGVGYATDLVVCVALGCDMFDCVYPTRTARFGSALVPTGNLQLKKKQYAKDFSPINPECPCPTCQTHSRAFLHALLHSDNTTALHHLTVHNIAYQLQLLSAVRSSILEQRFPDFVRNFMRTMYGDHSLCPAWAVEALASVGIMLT
T1 sequence (B8ZXI1 whole entry, chain 2 of 2): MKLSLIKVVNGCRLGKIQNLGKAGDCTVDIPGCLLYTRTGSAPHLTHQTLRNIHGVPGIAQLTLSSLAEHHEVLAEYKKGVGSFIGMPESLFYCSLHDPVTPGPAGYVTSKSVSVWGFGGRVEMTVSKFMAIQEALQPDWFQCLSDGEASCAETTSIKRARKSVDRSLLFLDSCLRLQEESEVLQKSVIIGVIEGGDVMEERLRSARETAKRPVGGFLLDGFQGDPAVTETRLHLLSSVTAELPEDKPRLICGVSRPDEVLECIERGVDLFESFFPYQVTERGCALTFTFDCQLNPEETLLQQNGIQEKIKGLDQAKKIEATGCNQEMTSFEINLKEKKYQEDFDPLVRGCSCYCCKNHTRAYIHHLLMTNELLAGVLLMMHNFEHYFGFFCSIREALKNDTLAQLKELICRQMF

B1: m_tRNATyr (mature, GUA) (structured_RNA)
RNA: GGCCUUCGAUAGCUCAGUUGGUAGAGCGGAGGACUGUAGAUCCUUAGGUCGCUGGUUCGAAUCCGGCUCGAAGGA
modifications: none (unmodified transcript)
**Q.** Which results are given for B1?
**A.** Kd ([1]; tRNA cloverleaf): 2400 ± 700 nM; Kd [2]: 1100 ± 300 nM

B2: m_pre-tRNATyr 2-1 (intron-containing) (structured_RNA)
RNA: GGCCUUCGAUAGCUCAGUUGGUAGAGCGGAGGACUGUAGUCAGUACAAUAUGGUAAUCCUUAGGUCGCUGGUUCGAUUCCGGCUCGAAGGA
modifications: none (unmodified transcript)
**Q.** B2 was tested. Which Kd [3] did it give?
**A.** The Kd was 1400 nM.

**Q.** What about the Kd [4] of the same binder?
**A.** Its Kd is 2700 nM.

B3: m_pre-tRNATyr 1-4 (intron-containing) (structured_RNA)
RNA: GGCCUUCGAUAGCUCAGUUGGUAGAGCGGAGGACUGUAGGUCAUUGUUCUAGAAAUCCUUAGGUCGCUGGUUCGAAUCCGGCUCGAAGGA
modifications: none (unmodified transcript)
**Q.** Which Kd ([1]; tRNA cloverleaf with intron in anticodon loop) does the source give for B3 here?
**A.** The Kd was 6000 ± 700 nM.

**Q.** And the Kd [5]?
**A.** The Kd was 2400 ± 200 nM.
